Experimental data published in paper PMC8269367, “DNA G-Quadruplexes Contribute to CTCF Recruitment”.

T1: HMGN1 (Homo sapiens, UniProt P05114 1-100)
T1 sequence: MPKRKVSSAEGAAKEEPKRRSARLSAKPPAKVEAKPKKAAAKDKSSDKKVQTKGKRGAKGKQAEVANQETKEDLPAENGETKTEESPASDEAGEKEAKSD

T2: HMGB2 (Homo sapiens, UniProt P26583 1-209)
T2 sequence: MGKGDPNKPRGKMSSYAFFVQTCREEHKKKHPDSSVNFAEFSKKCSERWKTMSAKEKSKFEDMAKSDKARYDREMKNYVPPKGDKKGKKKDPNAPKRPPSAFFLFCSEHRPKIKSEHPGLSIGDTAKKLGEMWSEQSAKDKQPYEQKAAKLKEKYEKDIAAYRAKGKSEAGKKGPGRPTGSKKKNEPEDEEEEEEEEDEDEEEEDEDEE


How the values were obtained:
HMGN1 [1] = biological target: T1, HMGN1; assay: MST; MST, 50 nM labelled protein, 0.61 nM-20 uM oligo, 140 mM potassium phosphate pH 7.2 (6.7 for i-motif N1-3; CTCF oligo CD at pH 6.7), 10 mM NaCl in oligo stocks, 22 C; details: protein: commercial; tags: His; parallel G4, partly intermolecular
HMGB2 = biological target: T2, HMGB2; assay: as above; details: protein: commercial; tags: His; mixed-topology G4
HMGN1 [2] = biological target: T1, HMGN1; assay: MST; positive control; MST, 50 nM labelled protein, 0.61 nM-20 uM oligo, 140 mM potassium phosphate pH 7.2 (6.7 for i-motif N1-3; CTCF oligo CD at pH 6.7), 10 mM NaCl in oligo stocks, 22 C; details: protein: commercial; tags: His; parallel G4

| Binder | Kd (HMGB2) [nM] | other results |
| --- | --- | --- |
| GGGGAGGGGGAGGGGGGAGGGAGGGGAGG (structured_DNA) [N1C-3 (N1-C3)] |  | Kd (HMGN1 [1]): 200 ± 100 nM |
| GGGAGAGGGAGAGGGAGAGGG (structured_DNA) [B2-M6] | 4000 ± 2000 |  |
| GGGCCCTGGGAACGGGGAGGG (structured_DNA) [B2-M7] | 1600 ± 600 |  |
| GGTGACAGGGGTATGGGGAGGGG (structured_DNA) [CT1 (G4-2)] |  | Kd (HMGN1 [2]): 1600 ± 300 nM |
